These results are taken from patent US20120115202A1.

The assay concerns the target PsaJF mutant PSI from Synechocystis sp. PCC 6803 (Synechocystis sp. PCC 6803) (UniProt Q55329). The assay is described as follows: cell-based or functional assay.

Where only a bound is given, the exact number is not on record here.

Regarding “horse heart cytochrome c (from UniProt P00004 2-105)”, the rate of electron donation (light-induced cytochrome c oxidation, absorbance difference 550-540 nm) (fold faster than to the wild-type PSI) was > 5.
